We go through eight sequences from a protein production outcome set (Wang et al. 2014).

A short description of this series: label from the status in PepcDB records.
For the sequence “HGGHRQYAKEILSTSSAAMASQRSFLGLEPTIKKIPAFRAVYLRHKGYNKSIALSWQKLMAWGFEHQISSQARQIGIHHDNPSITPLAECRYIAALEVEEGFRAQGLLGVMEFPPTLCAVFEVQGRYGDVLGLIDYVYHEWLPQSGYEAKTIPAFALYQKNHFLDPLGNFQLDFCLPVGVV”, the protein production result is recorded as “failed”.

As for “MRKTWPLLTLLLCTCASAQLRADIAHNTPPGQATMQVYDGEKVLFQATTPGLNAVTASKFSPDGRWLLNIADGSGYVQLWDTAKGERVKTFLSVYFRIFGADFTPDSERLLLDFSGSKERADPRRPAYFPSPSLWNLATLERISFVYNDKRESFYNGKVTFSQDGERMAFVRPNAYSSGPASVWNAKTGAYIATISRLPYPKGAAQTGGAGAMDARLSPDGQRVLVRYVDNRLAEYDASTGTLLKVRGKFSAADAGAELERFAREGR”, the protein production entry was “failed”.

In the case of “MGTIGAAGCTVNRFAVALMPDSGGHPRKPIAGVDAPPPHLLLVARRMTRPGEHMALTTYTPVITVFAAGREWTLERAADLQTLWDNMVEADFGDDERLPYWTELWPSSLVLADWLHDNAGRIRGRTCLDMGCGLGLCSLVGQWLGARVTGMDYEPEALFHARRNAERNRVPQPLWTVMDWRAPAVRRHAADLVWGGDIMYERRFVTPVLDFLDHVLAPCGAAWVAEPGRTVYNHFRETLDARGWHARRVLSSETASLYEQPESVTVHLWEITRLEHHHHHH”, the protein production entry was “failed”.

With “MTTNPYTGEREAGKSAIGAGLGSLVGAGIGALSSSKKDRGKGALIGAAAGAALGGGVGYYMDVQEANVRDKMRGTGVSVTRSGDNIILNMPNNVTFDSSSATLKPAGANTLTGVAMVLKEYPKTAVNVIGYTDSTGGHDLNMRLSQQRADSVASALITQGVDASRIRTQGLGPANPIASNSTAEGKAQNRRVEITLSPLLEHHHHHH”, the protein production result is on record as “not failed”.

In the case of “MEEINKYIQNSSETGGEIYNLIEELFPICRSITGNGVRKTMDIIRKHIPLEIHEVKSGTKVFDWTVPKEWNIKDAYVRNSKGEKVIDFKENNLHVMSYSVPVHKTMTLDELKPYLHTIPGNKDRIPYLTSYYKENWGFSLTQNKFDELCDDDYEVVIDSSLEDGSLTYGEYYIRGELEEEILLTTYTCHPSMCNDNLSGVALITFIAKALSKLKTKYSYRFLFAPETIGSITWLSRNEDKLKNIKMGLVATCVGDAGIKNYKRTKFGDAEIDKIVEKVLMHCGSEYYVADFFPWGSDERQFSSPGINLSVGSLMRSCYGFDGYHTSADNLCYMNKDGLADSYKTYLEVIYTIENNRTYLNLNPKCEPQLGKRGIYRMIGGGSDYPFDEFAMFWVLNMSDGKNSLLDIAYKSGMEFRRIKYAADALYRVELLKLV”, the protein production result is reported as “not failed”.

As to “MSVADSYFDELFRNNDDPWAFKQRWYERRKRALTLAALPRERYRAIFEPGCANGELSADLAERCDMLVCCDTSTQAVELARQRLADVPHARVVQARLPHQWPAGQFDLIVFSELGYYLDAADLHRLIDCALAALSPDGQLLACHWRPDIEGCPLNAQAVHAILAERLSMHRLFSHHEQDFLLDLWSRDGTSVAELEHHHHHH”, the protein production result is “not failed”.

For “VAASWREQFIRAEQTHWDAVTETASETYWEGGVLSDVTALAPDPATLFISNSMPIRDMDRFGGPRDADLTVLGNRGASGIDGITSTALGAGSATSDPLVLVTGDLAYYHDMNGLLALGRCAVDATVVLLNNDGGGIFHMLPIEDHPTFEDQFRTPHGLDFEPTEALYSLQFERVADRRQFRERFAESVQTDGTQVIEVRFDAGDSHAVRDQLTE”, the protein production result is “failed”.

Turning to “MTQIARISDTGTERRLQAERLIGAKALQEAQALRFNVFSGEFNAKLKGAELGLDMDDYDVHCSHIGVRDLNTGRLVATTRLLDHQAANSLGRFYSEEEFSLHGLVQLKGPILEIGRTCVDPAYRNGGTIAVLWGELAEVLNQGGYSYLMGCASIPMQDGGVQAQAIMQRLRERYLCTEHLRAEPKNPLPSLDIPSNVIAEMPPLLKAYMRLGAKICGEPCWDEDFQVADVFILLKRDELCPRYARHFKAAV”, the protein production entry is given as “failed”.
